Measurements from patent US20220088117.

Test system: T1, Serp-1 (myxomavirus-derived serine protease inhibitor)
T1 sequence: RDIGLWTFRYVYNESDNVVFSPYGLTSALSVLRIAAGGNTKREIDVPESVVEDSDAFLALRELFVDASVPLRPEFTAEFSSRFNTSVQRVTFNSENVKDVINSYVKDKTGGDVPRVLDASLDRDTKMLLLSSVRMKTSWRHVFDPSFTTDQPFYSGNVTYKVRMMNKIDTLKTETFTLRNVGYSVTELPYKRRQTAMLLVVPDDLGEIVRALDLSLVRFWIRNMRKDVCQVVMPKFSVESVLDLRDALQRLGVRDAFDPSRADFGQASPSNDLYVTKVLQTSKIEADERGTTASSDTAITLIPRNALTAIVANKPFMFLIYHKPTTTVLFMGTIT

## urokinase-type plasminogen activator (uPA)
  uPA activity in an in vitro substrate conversion assay: Serp-1 inhibition of uPA activity in an in vitro substrate conversion assay is not affected by the presence of a broad-spectrum antibiotic cocktail
